For two molecules, Kd results are on record in PMC10179326.

The target of the data set is alpha-thrombin (Homo sapiens, UniProt P00734;P00734 328-363;364-622). Put plainly: MST; potassium phosphate pH 7.5, 20 nM aptamer; EMSA: 10 mM sodium cacodylate pH 7.2, 100 mM KCl in D2O, incubation 25 C, 12% native gel in 1x TBE + 10 mM KCl at 10 C; MST: 10 mM Tris-HCl, 100 mM potassium ph. Background: A gel shift assay detects complexes by their altered migration in electrophoresis.

B1: 2GLE (analogue 2 - GLE tripeptide conjugate) (structured_DNA)
DNA: GGGTTGGGTGTGGGTTGGG
modifications: alpha-deoxyguanosine at positions 1,12; tripeptide GLE conjugated at T4 (N3 position, equivalent of T3 in TBA)
On to B1, for which the Kd was 2.7 nM.

In the case of GGTTGGTGTGGTTGG (structured_DNA) [TBA (15-mer thrombin binding aptamer)], the Kd came out at 19.5 nM.

What is called Kd is the concentration at which binding is half-saturated.
